Data published in publication PMC5735978.
Values belong to the substance of their own block, whether it stands above or below them.

Legend:
[1] = target: 6xHis-14-3-3γ wild-type (human) (UniProt P61981); experiment: native gel or EMSA; blue native gel (4-16%) of His-14-3-3γ after incubation with Flag-PAK6 S531N (4:1 molar ratio) under kinase assay conditions with or without 1 mM ATP; Coomassie staining
LRRK2 = LRRK2 (UniProt Q5S007); experiment: overlay of His-14-3-3γ on blotted Flag-LRRK2; conditions: reference: 14-3-3γ wild type; sites S59
14-3-3γ = 14-3-3γ (UniProt P61981); experiment: overlay of His-14-3-3γ on blotted Flag-PAK6; conditions: reference: PAK6 wild type; sites S113

stoichiometry N [1]: 2
Substance: 6xHis-14-3-3γ wild-type (from UniProt P61981 1-247) (natural protein)

other: percent reduction versus wild type (LRRK2): 80%
Substance: 14-3-3γ (from UniProt P61981) 14-3-3γ S59D

binding against the reference (14-3-3γ): weaker
Substance: PAK6 (from UniProt Q9NQU5) PAK6 S113A
